Measured values from US20240270821A1, “GIP/GLP1/GCG TRI-RECEPTOR AGONISTS AND USES THEREOF” (priority 2023, published 2024).
Substitutions are numbered along the chain they refer to. Non-standard residues stand in square brackets, D forms with d. No end group written: not given here. αMePhe(2-F) = C[C@](N)(Cc1ccccc1F)C(=O)O; Aib = CC(C)(N)C(=O)O

B1: Example 402 (peptide)
chain: YXQGTXTSDYXIXLDXKAQXXFIEXLEEGGPSSGEPPPE
modifications: synthetic construct; SITE 2: note = 2-Aminoisobutyric Acid; SITE 6: note = alpha-methyl-2-fluoro-L-phenylalanine; SITE 11: note = alpha-methyl-L-serine; SITE 13: note = alpha-methyl-leucine; SITE 16: note = L-ornithine; SITE 17: note = Lysine is chemically modified through conjugation of the epsilon
B2: Example 405 (peptide)
chain: YXQGTFTSDFSKXLDKKAQXAFIEYLAAGGPSSGEPPPSGE
modifications: synthetic construct; SITE 2: note = 2-Aminoisobutyric Acid; SITE 13: note = alpha-methyl-leucine; SITE 17: note = Lysine is chemically modified through conjugation of the epsilon-amino group of the Lysine side chain with (epsilon-K)2-(gamma-Glu)-CO-(CH2)18-CO2H; SITE 20: note = 2-Aminoisobutyric Aci
B3: Example 406 (peptide)
chain: YXQGTXTSDYSILLDKKAQXAFIEYLEEGGPSSGAPPPS
modifications: synthetic construct; SITE 2: note = 2-Aminoisobutyric Acid; SITE 6: note = alpha-methyl-2-fluoro-L-phenylalanine; SITE 17: note = Lysine is chemically modified through conjugation of the epsilon-amino group of the Lysine side chain with (gamma-Glu)2-CO-(CH2)16-CO2H; SITE 20: note = 2-Aminoisobutyric
B4: Example 413 (peptide)
chain: B3 chain with Y10X
modifications: not fully specified; synthetic construct; SITE 2: note = 2-Aminoisobutyric Acid; SITE 6: note = alpha-methyl-2-fluoro-L-phenylalanine; SITE 10: note = 3-(4-Pyridyl)-L-alanine; SITE 17: note = Lysine is chemically modified through conjugation of the epsilon-amino group of the Lysine side chain with (gamma-Glu)2-CO-(CH2)1
B5: Example 408 (peptide)
chain: B3 chain with S39E
modifications: synthetic construct; SITE 2: note = 2-Aminoisobutyric Acid; SITE 6: note = alpha-methyl-2-fluoro-L-phenylalanine; SITE 17: note = Lysine is chemically modified through conjugation of the epsilon-amino group of the Lysine side chain with (2-[2-(2-Amino-ethoxy)-ethoxy]-acetyl)-(gamma-Glu)-CO-(CH2) 16-
B6: Example 409 (peptide)
chain: B3 chain with I12S
modifications: synthetic construct; SITE 2: note = 2-Aminoisobutyric Acid; SITE 6: note = alpha-methyl-2-fluoro-L-phenylalanine; SITE 17: note = Lysine is chemically modified through conjugation of the epsilon-amino group of the Lysine side chain with (2-[2-(2-Amino-ethoxy)-ethoxy]-acetyl)-(gamma-Glu)-CO-(CH2) 16-
B7: Example 415 (peptide)
chain: B3 chain with A21X
modifications: synthetic construct; SITE 2: note = 2-Aminoisobutyric Acid; SITE 6: note = alpha-methyl-2-fluoro-L-phenylalanine; SITE 17: note = Lysine is chemically modified through conjugation of the epsilon-amino group of the Lysine side chain with (gamma-Glu)2-CO-(CH2)16-CO2H; SITE 20: note = 2-Aminoisobutyric
B8: Example 418 (peptide)
chain: B3 chain with Y10X, E27L
modifications: synthetic construct; SITE 2: note = 2-Aminoisobutyric Acid; SITE 6: note = alpha-methyl-L-phenylalanine; SITE 10: note = 3-(4-Pyridyl)-L-alanine; SITE 17: note = Lysine is chemically modified through conjugation of the epsilon-amino group of the Lysine side chain with (2-[2-(2-Amino-ethoxy)-ethoxy]-
B9: Example 416 (peptide)
chain: B3 chain with A21N
modifications: synthetic construct; SITE 2: note = 2-Aminoisobutyric Acid; SITE 6: note = alpha-methyl-2-fluoro-L-phenylalanine; SITE 17: note = Lysine is chemically modified through conjugation of the epsilon-amino group of the Lysine side chain with (gamma-Glu)2-CO-(CH2)16-CO2H; SITE 20: note = 2-Aminoisobutyric
B10: Example 414 (peptide)
chain: B3 chain with K16X
modifications: synthetic construct; SITE 2: note = 2-Aminoisobutyric Acid; SITE 6: note = alpha-methyl-2-fluoro-L-phenylalanine; SITE 16: note = L-ornithine; SITE 17: note = Lysine is chemically modified through conjugation of the epsilon-amino group of the Lysine side chain with (gamma-Glu)2-CO-(CH2)16-CO2H; SITE
B11: Example 404 (peptide)
chain: YXQGTXTSDYSIXLDXKAQXAFIEYLLEGGPSSGAPPPSEG
modifications: synthetic construct; SITE 2: note = 2-Aminoisobutyric Acid; SITE 6: note = alpha-methyl-2-fluoro-L-phenylalanine; SITE 13: note = alpha-methyl-leucine; SITE 16: note = L-ornithine; SITE 17: note = Lysine is chemically modified through conjugation of the epsilon-amino group of the Lysine side chain w
B12: Example 411 (peptide)
chain: B11 chain with X13L, X16K, Y25X, L27E
modifications: synthetic construct; SITE 2: note = 2-Aminoisobutyric Acid; SITE 6: note = alpha-methyl-2-fluoro-L-phenylalanine; SITE 17: note = Lysine is chemically modified through conjugation of the epsilon-amino group of the Lysine side chain with (2-[2-(2-Amino-ethoxy)-ethoxy]-acetyl)-(gamma-Glu)-CO-(CH2) 16-
B13: Example 412 (peptide)
chain: B11 chain with X13L, X16K, Y25F, L27E
modifications: not fully specified; synthetic construct; SITE 2: note = 2-Aminoisobutyric Acid; SITE 6: note = alpha-methyl-2-fluoro-L-phenylalanine; SITE 17: note = Lysine is chemically modified through conjugation of the epsilon-amino group of the Lysine side chain with (2-[2-(2-Amino-ethoxy)-ethoxy]-acetyl)-(gamma-Glu)-CO-(CH2) 16-
B14: Example 417 (peptide)
chain: B11 chain with X16K, G29T
modifications: synthetic construct; SITE 2: note = 2-Aminoisobutyric Acid; SITE 6: note = alpha-methyl-2-fluoro-L-phenylalanine; SITE 13: note = alpha-methyl-leucine; SITE 17: note = Lysine is chemically modified through conjugation of the epsilon-amino group of the Lysine side chain with (2-[2-(2-Amino-ethoxy)-et)
B15: Example 410 (peptide)
chain: Y[Aib]QGT[αMePhe(2-F)]TSDYSILLDAKAFIEYLEEGGPSSGAPPPSEG-NH2
modifications: not fully specified (residue 17)
B16: Example 401 (peptide)
chain: YXQGTXTSDXXIXLDXKAQXXFIEXLIEGGPSSGEPPPSEG
modifications: synthetic construct; SITE 2: note = 2-Aminoisobutyric Acid; SITE 6: note = alpha-methyl-2-fluoro-L-phenylalanine; SITE 10: note = 3-(4-Pyridyl)-L-alanine; SITE 11: note = alpha-methyl-L-serine; SITE 13: note = alpha-methyl-leucine; SITE 16: note = L-ornithine; SITE 17: note = Lysine is chemically mo
B17: Example 403 (peptide)
chain: B16 chain with X10Y, I27E, S39E
modifications: synthetic construct; SITE 2: note = 2-Aminoisobutyric Acid; SITE 6: note = alpha-methyl-2-fluoro-L-phenylalanine; SITE 11: note = alpha-methyl-L-serine; SITE 13: note = alpha-methyl-leucine; SITE 16: note = L-ornithine; SITE 17: note = Lysine is chemically modified through conjugation of the epsilon

What follows are binders tested against hGLP-1R (Homo sapiens, UniProt P43220) (assay: cell-based or functional assay).
Chain of hGLP-1R (P43220 24-463): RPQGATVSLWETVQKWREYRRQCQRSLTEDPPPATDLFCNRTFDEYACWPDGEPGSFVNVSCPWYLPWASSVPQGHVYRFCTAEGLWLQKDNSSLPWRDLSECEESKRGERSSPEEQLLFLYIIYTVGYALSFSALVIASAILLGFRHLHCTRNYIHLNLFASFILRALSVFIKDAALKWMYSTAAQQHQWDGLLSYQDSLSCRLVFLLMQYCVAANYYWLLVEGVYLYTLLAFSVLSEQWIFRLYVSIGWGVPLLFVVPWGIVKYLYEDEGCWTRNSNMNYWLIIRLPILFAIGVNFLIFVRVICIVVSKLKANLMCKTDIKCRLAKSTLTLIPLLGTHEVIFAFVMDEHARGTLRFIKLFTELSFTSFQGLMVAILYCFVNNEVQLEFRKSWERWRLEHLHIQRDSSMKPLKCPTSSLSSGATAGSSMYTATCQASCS

| Binder | Relative cAMP EC50 [nM] | cAMP Rel EC50, nM (1% HSA) [nM] |
| --- | --- | --- |
| B1 | 0.725 | 86.6 |
| B2 | 1.48 | 285 |
| B3 | 0.208 | 27.8 |
| B4 | 0.564 | 41.4 |
| B5 | 0.253 | 37.9 |
| B6 | 0.484 | 41.7 |
| B7 | 0.38 | 52.6 |
| B8 | 0.264 | 36.6 |
| B9 | 0.331 | 40.8 |
| B10 | 0.176 | 32.8 |
| B11 | 0.217 | 32.2 |
| B12 | 0.709 | 82.1 |
| B13 | 0.282 | 46 |
| B14 | 0.328 | 67 |
| B15 | 0.354 | 84.4 |
| B16 | 0.213 | 12 |
| B17 | 0.396 | 70 |

What follows are binders tested against T1, human GIP receptor (human) (UniProt P48546) (assay: cell-based or functional assay).
T1 sequence (looked up): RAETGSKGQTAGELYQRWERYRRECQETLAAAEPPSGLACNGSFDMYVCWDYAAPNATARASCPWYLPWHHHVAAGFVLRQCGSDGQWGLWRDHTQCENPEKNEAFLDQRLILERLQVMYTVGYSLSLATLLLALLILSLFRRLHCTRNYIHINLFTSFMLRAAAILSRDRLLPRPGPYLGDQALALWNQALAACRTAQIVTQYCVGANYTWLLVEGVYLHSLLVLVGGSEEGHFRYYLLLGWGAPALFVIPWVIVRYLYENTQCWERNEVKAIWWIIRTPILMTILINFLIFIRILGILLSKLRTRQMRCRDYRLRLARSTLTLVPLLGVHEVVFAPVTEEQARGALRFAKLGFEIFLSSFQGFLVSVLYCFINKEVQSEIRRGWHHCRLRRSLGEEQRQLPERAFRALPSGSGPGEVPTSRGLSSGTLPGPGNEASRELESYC

| Binder | Relative cAMP EC50 [nM] | cAMP Rel EC50, nM (1% HSA) [nM] |
| --- | --- | --- |
| B1 | 0.123 | 44.9 |
| B2 | 0.28 | 32.1 |
| B3 | 0.0233 | 10.5 |
| B4 | 0.0881 | 23.5 |
| B5 | 0.0329 | 15.3 |
| B6 | 0.363 | 66.6 |
| B7 | 0.0496 | 28.9 |
| B8 | 0.0153 | 6.02 |
| B9 | 0.0393 | 27.6 |
| B10 | 0.0303 | 14.9 |
| B11 | 0.0102 | 2.03 |
| B12 | 0.058 | 23.8 |
| B13 | 0.0351 | 12.5 |
| B14 | 0.0144 | 4.46 |
| B15 | 0.0708 | 49.3 |
| B16 | 0.0183 | 1.71 |
| B17 | 0.0827 | 36.9 |

These binders were tested against human glucagon receptor (human) (UniProt P47871) (assay: cell-based or functional assay).
Chain of human glucagon receptor (human) (P47871 26-477): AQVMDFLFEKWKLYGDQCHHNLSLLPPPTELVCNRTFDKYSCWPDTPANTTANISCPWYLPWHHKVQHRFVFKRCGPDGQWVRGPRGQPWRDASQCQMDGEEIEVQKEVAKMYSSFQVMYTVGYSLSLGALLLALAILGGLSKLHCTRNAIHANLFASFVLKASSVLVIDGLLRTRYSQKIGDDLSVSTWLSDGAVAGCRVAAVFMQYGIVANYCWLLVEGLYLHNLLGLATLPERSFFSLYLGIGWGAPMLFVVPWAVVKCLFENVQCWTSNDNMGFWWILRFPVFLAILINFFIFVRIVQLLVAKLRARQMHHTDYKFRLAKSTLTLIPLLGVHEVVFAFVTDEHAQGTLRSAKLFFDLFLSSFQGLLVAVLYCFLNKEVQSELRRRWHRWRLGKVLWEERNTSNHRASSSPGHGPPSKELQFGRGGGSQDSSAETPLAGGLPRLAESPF

| Binder | Relative cAMP EC50 [nM] | cAMP Rel EC50, nM (1% HSA) [nM] |
| --- | --- | --- |
| B1 | 5.66 | 1030 |
| B2 | 15.5 | 2530 |
| B3 | 1.23 | 254 |
| B4 | 6.3 | 629 |
| B5 | 1.93 | 472 |
| B6 | 7.92 | 1190 |
| B7 | 8.64 | 1090 |
| B8 | 4.7 | 627 |
| B9 | 2.08 | 348 |
| B10 | 4.56 | 487 |
| B11 | 4.1 | 735 |
| B12 | 3.94 | 1170 |
| B13 | 2.36 | 467 |
| B14 | 2.83 | 386 |
| B15 | 9.94 | 1950 |
| B16 | 1.99 | 111 |
| B17 | 1.59 | 527 |
